Read-outs that look alike come from different tables or passages of the source.
What was measured:
[1] = molecular target: T1, human epidermal growth factor receptor 2 (HER2) (human, UniProt P04626 23-1255); test: cell-based or functional assay
[2] = molecular target: T1, human epidermal growth factor receptor …; test: flow cytometry on CHO-S cells transiently transfected with hu-HER2, PE-goat anti-human IgG, MFI (Example 24)
[3] = molecular target: T1, human epidermal growth factor receptor …; test: flow cytometry on A431 cells (low HER2), PE-goat anti-human IgG, MFI; EC50 by non-linear regression (Example 12)
Experimental: (§1) Binding of HER2 antibodies was detected using a Phycoerythrin (PE)-conjugated goat-anti-human IgG antibody (Jackson). […] EC₅₀ values were determined by means of non-linear regression (sigmoidal dose-response with variable slope) using GraphPad Prism V4.03 software (GraphPad Software, San Diego, Calif., USA).

[4] = molecular target: T1, human epidermal growth factor receptor …; test: flow cytometry on AU565 cells (high HER2), PE-goat anti-human IgG, MFI; EC50 by non-linear regression (Example 12)
Experimental: as §1

[5] = molecular target: T2, human CD3 protein complex (human, UniProt P07766 23-207; P09693 23-182; P04234 22-171; P20963 22-164); test: flow cytometry on Jurkat cells (CD3-expressing T cell line), MFI (PE) (Example 21)
T2 construct: whole, on cells; also called CD3 on Jurkat cells

[6] = molecular target: T2, human CD3 protein complex; test: as above; remark: listed apart in the source
[7] = molecular target: T2, human CD3 protein complex; test: as above; remark: listed apart in the source

T2 sequence (P07766 23-207, form in doubt, chain 1 of 4): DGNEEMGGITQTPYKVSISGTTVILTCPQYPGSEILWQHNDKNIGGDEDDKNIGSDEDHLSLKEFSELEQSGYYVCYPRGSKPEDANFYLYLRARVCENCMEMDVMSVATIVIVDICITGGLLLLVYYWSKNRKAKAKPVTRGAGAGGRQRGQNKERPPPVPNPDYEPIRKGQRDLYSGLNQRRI
T2 sequence (P09693 23-182, form in doubt, chain 2 of 4): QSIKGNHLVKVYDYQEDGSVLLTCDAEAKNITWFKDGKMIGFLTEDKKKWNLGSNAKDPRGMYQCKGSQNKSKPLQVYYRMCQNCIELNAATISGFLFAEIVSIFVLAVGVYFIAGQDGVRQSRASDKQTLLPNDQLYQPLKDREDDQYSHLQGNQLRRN
T2 sequence (P04234 22-171, form in doubt, chain 3 of 4): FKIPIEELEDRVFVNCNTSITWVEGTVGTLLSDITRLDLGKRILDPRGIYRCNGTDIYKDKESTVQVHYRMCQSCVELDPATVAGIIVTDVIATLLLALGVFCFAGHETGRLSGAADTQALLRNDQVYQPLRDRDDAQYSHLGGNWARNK
T2 sequence (P20963 22-164, form in doubt, chain 4 of 4): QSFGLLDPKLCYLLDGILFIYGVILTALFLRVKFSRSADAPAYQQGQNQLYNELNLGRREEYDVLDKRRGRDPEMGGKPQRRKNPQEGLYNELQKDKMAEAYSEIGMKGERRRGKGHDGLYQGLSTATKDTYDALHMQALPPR

B1: HER2 HuMab 153 (antibody, V domains shown)
VH: QVQLVESGGGVVQPGRSLRLSCAASGFTFSDYVIHWVRQAPGKGLEWVTVISYDGSNKYYADSVKGRFTISRDNSKNTLYLQMNSLSAEDTAMYYCARGGITGTTGVFDYWGQGTLVTVSS
VL: DIQMTQSPSSLSASVGDRVTITCRASQGISSWLAWYQQKPEKAPKSLIYDASSLQSGVPSRFSGSGYGTDFSLTISSLQPEDFAIYYCQQYKSYPITFGQGTRLEIK
notes: also called PC1014-153; TH1014-153
EC50, fab-CypHer5E internalization assay, AU565 cells [1]: ~14.9 ng/mL
Maximal MFI, fab-CypHer5E internalization assay, AU565 cells [1]: 87500 MFI
EC50 (read off the curve) [2]: ~0.04 µg/mL
EC50 [3]: 0.244 µg/mL
EC50 [4]: 0.626 µg/mL

B2: IgG1-huOKT3-F405L (antibody, V domains shown)
VH: QVQLVQSGGGVVQPGRSLRLSCKASGYTFTRYTMHWVRQAPGKGLEWIGYINPSRGYTNYNQKVKDRFTISRDNSKNTAFLQMDSLRPEDTGVYFCARYYDDHYSLDYWGQGTPVTVSS
VL: DIQMTQSPSSLSASVGDRVTITCSASSSVSYMNWYQQTPGKAPKRWIYDTSKLASGVPSRFSGSGSGTDYTFTISSLQPEDIATYYCQQWSSNPFTFGQGTKLQIT
notes: Expressed as IgG1,κ with F405L; also called huOKT3-C114S-gLC; IgG1-OKT3
EC50 (read off the curve) [5]: ~20 ng/mL

B3: IgG1-huOKT3-F405L × IgG1-HER2-153-K409R (bispecific antibody)
heavy 1: not shown
VL 1: DIQMTQSPSSLSASVGDRVTITCRASQGISSWLAWYQQKPEKAPKSLIYDASSLQSGVPSRFSGSGYGTDFSLTISSLQPEDFAIYYCQQYKSYPITFGQGTRLEIK
heavy 2: not shown
VL 2: DIQMTQSPSSLSASVGDRVTITCSASSSVSYMNWYQQTPGKAPKRWIYDTSKLASGVPSRFSGSGSGTDYTFTISSLQPEDIATYYCQQWSSNPFTFGQGTKLQIT
notes: Made by 2-MEA-induced Fab-arm exchange; IgG1,κ; also called huOKT3×153
EC50 (read off the curve) [5]: ~2000 ng/mL

B4: huOKT3-F405L x b12-K409R (bispecific antibody)
heavy chain, CD3 arm (huOKT3-C114S-gLC, IgG1-F405L): not shown
light chain, CD3 arm: DIQMTQSPSSLSASVGDRVTITCSASSSVSYMNWYQQTPGKAPKRWIYDTSKLASGVPSRFSGSGSGTDYTFTISSLQPEDIATYYCQQWSSNPFTFGQGTKLQIT
heavy chain, b12 arm (IgG1-K409R): not shown
light chain, b12 arm: EIVLTQSPGTLSLSPGERATFSCRSSHSIRSRRVAWYQHKPGQAPRLVIHGVSNRASGISDRFSGSGSGTDFTLTITRVEPEDFALYYCQVYGASSYTFGQGTKLERK
notes: also called huOKT3 x b12; CD3xb12 control
EC50 (read off the curve) [5]: ~3000 ng/mL

B5: IgG1-HUM291-F405L (antibody, V domains shown)
VH: QVQLVQSGAEVKKPGASVKVSCKASGYTFISYTMHWVRQAPGQGLEWMGYINPRSGYTHYNQKLKDKATLTADKSASTAYMELSSLRSEDTAVYYCARSAYYDYDGFAYWGQGTLVTVSS
VL: DIQMTQSPSSLSASVGDRVTITCSASSSVSYMNWYQQKPGKAPKRLIYDTSKLASGVPSRFSGSGSGTDFTLTISSLQPEDFATYYCQQWSSNPPTFGGGTKVEIK
notes: Expressed as IgG1,κ with F405L; also called visilizumab
EC50 (read off the curve) [6]: ~20 ng/mL

B6: IgG1-HUM291-F405L × IgG1-HER2-153-K409R (bispecific antibody)
heavy 1: not shown
VL 1: DIQMTQSPSSLSASVGDRVTITCRASQGISSWLAWYQQKPEKAPKSLIYDASSLQSGVPSRFSGSGYGTDFSLTISSLQPEDFAIYYCQQYKSYPITFGQGTRLEIK
heavy 2: not shown
VL 2: DIQMTQSPSSLSASVGDRVTITCSASSSVSYMNWYQQKPGKAPKRLIYDTSKLASGVPSRFSGSGSGTDFTLTISSLQPEDFATYYCQQWSSNPPTFGGGTKVEIK
notes: Made by 2-MEA-induced Fab-arm exchange; IgG1,κ; also called HUM291×153
EC50 (read off the curve) [6]: ~2000 ng/mL

B7: IgG1-hu-CLB-T3/4-F405L × IgG1-HER2-169-K409R (bispecific antibody)
heavy 1: not shown
VL 1: EIVLTQSPATLSLSPGERATLSCRASQSVSSYLAWYQQKPGQAPRLLIYDASNRATGIPARFSGSGSGTDFTLTISSLEPEDFAVYYCQQRSNWPRTFGQGTKVEIK
heavy 2: not shown
VL 2: EIVLTQSPATLSLSPGERATLSCSASSSVTYVHWYQQKPGQAPRLLIYDTSKLASGIPARFSGSGSGTDFTLTISSLEPEDFAVYYCFQGSGYPLTFGSGTKLEMR
notes: Made by 2-MEA-induced Fab-arm exchange; IgG1,κ
EC50 (read off the curve) [7]: ~200 ng/mL

B8: huCLB-T3/4-F405L x b12-K409R (bispecific antibody)
heavy chain, CD3 arm (huCLB-T3/4, IgG1-F405L): not shown
light chain, CD3 arm: EIVLTQSPATLSLSPGERATLSCSASSSVTYVHWYQQKPGQAPRLLIYDTSKLASGIPARFSGSGSGTDFTLTISSLEPEDFAVYYCFQGSGYPLTFGSGTKLEMR
heavy chain, b12 arm (IgG1-K409R): not shown
light chain, b12 arm: EIVLTQSPGTLSLSPGERATFSCRSSHSIRSRRVAWYQHKPGQAPRLVIHGVSNRASGISDRFSGSGSGTDFTLTITRVEPEDFALYYCQVYGASSYTFGQGTKLERK
notes: also called huCLB-T3/4 x b12; CD3xb12 control
EC50 (read off the curve) [7]: ~200 ng/mL

Reference: patent US20140170149A1 (Genmab, published 2014)
